± gives the standard deviation of the averaged measurements.
Test system: ATP
Test: switch fluorescence ratio, 500 uM ATP over buffer (Cy3 cluster intensity, sum of 5 cycles each) (fold (ratio)); higher = stronger signal-on switching upon ATP binding; sequences stand for … in TCGTCGGCAGCGTCAGATGTGTATAAGAGACAGTTTTTTTTTTTTTTTTTTTTTTTTT…TC
Conditions: aptamer strand: ATP DNA aptamer (quencher-CACCTGGGGGAGTATTGCGGAGGAAGG + anchor), 100 nM annealed; ATP concentration: 500 uM
Outline: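 After annealing to 100 nM quencher-labelled ATP aptamer, Cy3-labelled switching-strand clusters on a modified Illumina MiSeq flow-cell were imaged in selection buffer. A second image followed after 15 min with 500 uM ATP at 22 °C, and five such buffer/ATP cycles were done, each separated by NaOH stripping and re-annealing. The fluorescence ratio, averaged per switch-domain sequence, is summed target-cycle over summed buffer-cycle Cy3 intensity per cluster, with clusters outside 100-1000 RFU excluded.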
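Also: ATP exposure 15 min at 22 °C before imaging.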

Row | Sequence | switch fluorescence ratio
1 | GGCAATTCAG | 1.07 ± 0.019
2 | GGCACAAAAG | 0.983 ± 0.019
3 | GGCACATAAG | 1.012 ± 0.0033
4 | GGCACATGGG | 1.01 ± 0.028
5 | GGCACCTGGG | 1.02 ± 0.016
6 | GGCACGTATA | 1.17 ± 0.014
7 | GGCACTATAT | 1.04 ± 0.023
8 | GGCACTTCGG | 0.99 ± 0.014
9 | GGCAGAGGAG | 1.01 ± 0.0063
10 | GGCAGCCTTT | 1.0169 ± 0.00028
11 | GGCAGCTGGA | 0.9578 ± 0.0072
12 | GGCAGGGGGC | 1.02 ± 0.031
13 | GGCAGGGGTA | 0.995 ± 0.028
14 | GGCAGGGGTG | 1.11 ± 0.015
15 | GGCAGGTTTT | 0.996 ± 0.035
16 | GGCAGTACGT | 1.27 ± 0.066
17 | GGCAGTCACG | 1.02 ± 0.014
18 | GGCATAAGTG | 1.016 ± 0.0087
19 | GGCATATGCG | 1.013 ± 0.0068
20 | GGCATCGCGA | 1.1 ± 0.064
21 | GGCATGGGGG | 0.984 ± 0.017
22 | GGCATGGGTT | 1 ± 0.019
23 | GGCATTACTA | 1.21 ± 0.022

Row | Sequence | switch fluorescence ratio
24 | GGCATTAGTT | 0.992 ± 0.043
25 | GGCATTGGGT | 1.0068 ± 0.00028
26 | GGCCACGTAG | 1.02 ± 0.022
27 | GGCCATATGT | 1.02 ± 0.016
28 | GGCCCCGTTT | 1.04 ± 0.18
29 | GGCCCGGACT | 1.04 ± 0.013
30 | GGCCCTGGGA | 1.02 ± 0.029
31 | GGCCGAAGCG | 1.07 ± 0.049
32 | GGCCGATATG | 0.996 ± 0.015
33 | GGCCGGCCAG | 1.01 ± 0.047
34 | GGCCGTAGCG | 0.986 ± 0.025
35 | GGCCGTGTGG | 0.998 ± 0.023
36 | GGCCTAGGCT | 1.02 ± 0.013
37 | GGCCTCCGGT | 1.09 ± 0.018
38 | GGCCTGGCTA | 0.974 ± 0.02
39 | GGCCTGGGGG | 1 ± 0.019
40 | GGCCTTGTCG | 1.06 ± 0.046
41 | GGCCTTGTG | 0.962 ± 0.035
42 | GGCCTTTGCT | 1.02 ± 0.041
43 | GGCGACAGAG | 1.04 ± 0.051
44 | GGCGAGAGGG | 0.979 ± 0.042
45 | GGCGATCACG | 0.9834 ± 0.006
46 | GGCGCACTAT | 1.22 ± 0.051

Row | Sequence | switch fluorescence ratio
47 | GGCGCACTGT | 1.02 ± 0.021
48 | GGCGCCATGA | 1.034 ± 0.0036
49 | GGCGCCATGG | 0.986 ± 0.055
50 | GGCGCCTGGG | 0.9875 ± 0.0033
51 | GGCGCGGGGG | 1.03 ± 0.023
52 | GGCGCTTGGG | 0.986 ± 0.022
53 | GGCGCTTTTC | 1 ± 0.058
54 | GGCGGAACTA | 1.01 ± 0.018
55 | GGCGGAAGTA | 1 ± 0.019
56 | GGCGGAGAGA | 1.03 ± 0.07
57 | GGCGGAGGGA | 0.99 ± 0.011
58 | GGCGGATAAG | 0.979 ± 0.013
59 | GGCGGATATG | 1.009 ± 0.0097
60 | GGCGGATCGA | 0.998 ± 0.063
61 | GGCGGGGCAC | 0.989 ± 0.038
62 | GGCGGGGGGA | 1.01 ± 0.032
63 | GGCGGGGGTT | 1.03 ± 0.017
64 | GGCGGGTCGG | 0.972 ± 0.029
65 | GGCGTAAGTG | 0.953 ± 0.027
66 | GGCGTATTGG | 0.988 ± 0.027
67 | GGCGTCGACG | 1.02 ± 0.11
68 | GGCGTGTGGT | 0.991 ± 0.066
69 | GGCGTTTTGA | 1.04 ± 0.021

Row | Sequence | switch fluorescence ratio
70 | GGCGTTTTGG | 0.982 ± 0.026
71 | GGCTAAAATT | 0.999 ± 0.042
72 | GGCTAAACG | 1.05 ± 0.011
73 | GGCTAAGGAT | 1 ± 0.018
74 | GGCTAAGGGT | 0.995 ± 0.013
75 | GGCTAGCTAC | 1.09 ± 0.012
76 | GGCTATCGGT | 0.978 ± 0.035
77 | GGCTATGGTG | 1.004 ± 0.01
78 | GGCTATTATT | 0.985 ± 0.025
79 | GGCTATTCCT | 1.01 ± 0.0012
80 | GGCTATTTTC | 0.991 ± 0.051
81 | GGCTCAACGA | 1.01 ± 0.045
82 | GGCTCAGCGG | 1.03 ± 0.07
83 | GGCTCAGGCA | 1.04 ± 0.023
84 | GGCTCTGCTA | 1.11 ± 0.047
85 | GGCTGAGGCA | 1.01 ± 0.029
86 | GGCTGATTTG | 0.961 ± 0.027
87 | GGCTGGATTT | 0.98525 ± 0.00086
88 | GGCTGGCCAT | 1.01 ± 0.025
89 | GGCTGGCGGC | 0.984 ± 0.026
90 | GGCTGGGTGG | 1.01 ± 0.053
91 | GGCTGGGTTT | 1.02 ± 0.026
92 | GGCTGGTATA | 0.987 ± 0.031

Row | Sequence | switch fluorescence ratio
93 | GGCTTAGACG | 0.959 ± 0.063
94 | GGCTTAGAGT | 0.971 ± 0.011
95 | GGCTTAGCAT | 1.02 ± 0.037
96 | GGCTTCGGGA | 1.01 ± 0.054
97 | GGCTTGCGTA | 0.9512 ± 0.0029
98 | GGCTTGCTTT | 1.01 ± 0.021
99 | GGCTTGGTTA | 1.02 ± 0.015
100 | GGCTTTAGTA | 1.02 ± 0.027
101 | GGCTTTATGG | 0.977 ± 0.024
102 | GGCTTTGTAG | 0.9956 ± 0.0081
103 | GGCTTTTGCT | 0.9978 ± 0.0038
104 | GGCTTTTGTA | 0.972 ± 0.019
105 | GGGAAAAAGC | 0.993 ± 0.04
106 | GGGAAAAGAT | 0.978 ± 0.042
107 | GGGAAAATAT | 0.999 ± 0.063
108 | GGGAAAATTC | 1.06 ± 0.089
109 | GGGAAACATG | 0.979 ± 0.028
110 | GGGAAACTGA | 1.04 ± 0.0027
111 | GGGAAAGAGG | 0.991 ± 0.048
112 | GGGAAAGGCG | 0.983 ± 0.042
113 | GGGAAAGGGA | 0.978 ± 0.022
114 | GGGAAATAGA | 1.004 ± 0.0088
115 | GGGAAATCAG | 0.9838 ± 0.0076

Row | Sequence | switch fluorescence ratio
116 | GGGAAATGCG | 0.9983 ± 0.0053
117 | GGGAAATTTT | 0.987 ± 0.021
118 | GGGAACCAAG | 0.997 ± 0.026
119 | GGGAACGAGG | 1.02 ± 0.019
120 | GGGAACGGGT | 1 ± 0.035
121 | GGGAACGTTA | 1.05 ± 0.035
122 | GGGAAGAAGT | 1.011 ± 0.0084
123 | GGGAAGACGC | 0.978 ± 0.025
124 | GGGAAGAGTT | 0.994 ± 0.012
125 | GGGAAGATTT | 0.992 ± 0.036
126 | GGGAAGCGTT | 0.997 ± 0.012
127 | GGGAAGCTTA | 1.008 ± 0.0042
128 | GGGAAGGGTT | 0.998 ± 0.029
129 | GGGAATAACG | 0.972 ± 0.058
130 | GGGAATATTT | 0.995 ± 0.0097
131 | GGGAATCCGG | 1.02 ± 0.013
132 | GGGAATCGTC | 0.987 ± 0.04
133 | GGGAATGCGG | 0.99 ± 0.03
134 | GGGAATGCTT | 1.016 ± 0.0054
135 | GGGAATGGAG | 0.976 ± 0.029
136 | GGGAATTAGG | 1 ± 0.021
137 | GGGACAGGGG | 1.21 ± 0.35
138 | GGGACATGTA | 0.98 ± 0.022

Row | Sequence | switch fluorescence ratio
139 | GGGACCAGAT | 1.01 ± 0.033
140 | GGGACCGGTG | 1.03 ± 0.02
141 | GGGACGAGGG | 1.03 ± 0.035
142 | GGGACGGGTA | 1.008 ± 0.0015
143 | GGGACGTCGT | 1.04 ± 0.042
144 | GGGAGAACG | 0.98 ± 0.017
145 | GGGAGAGAGG | 0.984 ± 0.011
146 | GGGAGAGGGA | 0.978 ± 0.021
147 | GGGAGAGGTT | 0.987 ± 0.032
148 | GGGAGAGTTT | 1.01 ± 0.026
149 | GGGAGCCGAG | 1 ± 0.03
150 | GGGAGGAGGC | 0.889 ± 0.04
151 | GGGAGGAGTT | 0.9689 ± 0.0067
152 | GGGAGGCAAT | 1.46 ± 0.38
153 | GGGAGGGATA | 0.995 ± 0.02
154 | GGGAGGGGAA | 1.1 ± 0.15
155 | GGGAGGTGGT | 1.08 ± 0.17
156 | GGGAGTAAAT | 1.01 ± 0.037
157 | GGGAGTAGCC | 1.01 ± 0.059

Source: the supplement of paper PMC10126150
